To fix the notation:
B1: GST-LDIII_(C(198–210)) (GST fused to amino acids 198-210 of genotype III LDAg) (domain or fragment)
chain: FTPPPPGYYWVPG
notes: amino acids 198-210 of the large delta antigen of HDV genotype III, Peru-1 strain, GenBank L22063; Inserted downstream of GST in pGEX-4T1 by EcoRI and SalI; also called 13-amino-acid peptide of genotype III LDAg; source: E. coli BL21 (DE3), purified (glutathione beads); not shown: GST, N-terminal, kept
B3: 6XHis-CHC_((1–107)) (hexahistidine-tagged fragment, amino acids 1 to 107, of human clathrin heavy chain) (domain or fragment, UniProt Q00610 1-107, looked up)
chain: MAQILPIRFQEHLQLQNLGINPANIGFSTLTMESDKFICIREKVGEQAQVVIIDMNDPSNPIRRPISADSAIMNPASKVIALKAGKTLQIFNIEMKSKMKAHTMTDD
notes: human clathrin heavy chain, amino acids 1 to 107, cDNA amplified by RT-PCR and inserted downstream of the hexahistidine tag of pET-15b; also called fragment of CHC; 107-amino-acid peptide of CHC; source: E. coli BL21 (DE3), purified (nickel beads); not shown: His6, N-terminal, kept

In assay [1] the target is EGFP-LDII (EGFP fused to full-length large hepatitis delta antigen of HDV genotype II, Taiwan-3 strain) (hepatitis delta virus genotype II (Taiwan-3 strain)). Briefly: co-IP; HuH-7 cells transfected with pEGFP-C3 or pEGFP-LD plasmids, TNF-α (30 ng/ml) for 2 h at 24 h post-transfection; lysate precipitated with anti-GFP, blot for CHC; CHC normalised to actin, genotype I set to 1, mean of three experiments.

Assay [2] addresses EGFP-LDIII (EGFP fused to full-length large hepatitis delta antigen of HDV genotype III, Peru-1 strain) (hepatitis delta virus genotype III (Peru-1 strain)). The assay is described as above.
In assay [3] the target is B3. Briefly: pull-down; GST or GST-LD_(C(198–210)) on Glutathione Sepharose 4B beads incubated with E. coli produced, purified 6XHis-CHC_((1–107)) for 16 h at 4°C; three washes with 0.05% Tween-20 in PBS; SDS-PAGE, silver stain; mean of three experiments. The settings on record: both partners purified.
Assay [4] addresses T1, GST-LDII_(C(198–210)) (GST fused to amino acids 198-210 of genotype II LDAg) (hepatitis delta virus genotype II …).
T1 construct: amino acids 198-210 of the large delta antigen of HDV genotype II, Taiwan-3 strain, GenBank U19598; Inserted downstream of GST in pGEX-4T1 by EcoRI and SalI; also called 13-amino-acid peptide of genotype II LDAg; source: E. coli BL21 (DE3), purified (glutathione beads); not shown: GST, N-terminal, kept
T1 chain: GPSPPQQRLPLLE
Briefly: pull-down; GST or GST-LD_(C(198–210)) on Glutathione Sepharose 4B beads incubated with HuH-7 cell lysate for 16 h at 4°C; three washes with 0.05% Tween-20 in PBS; blot for CHC; mean of three experiments. The settings on record: one partner purified.

In assay [5] the target is B1. The description is as above. The settings on record: one partner purified.
For assay [6], the target named is T1, GST-LDII_(C(198–210)) (GST fused to …). The assay is described as follows: pull-down; GST or GST-LD_(C(198–210)) on Glutathione Sepharose 4B beads incubated with E. coli produced, purified 6XHis-CHC_((1–107)) for 16 h at 4°C; three washes with 0.05% Tween-20 in PBS; SDS-PAGE, silver stain; mean of three experiments. Conditions: both partners purified.
The target of assay [7] is B1. The description is as above. Conditions: both partners purified.

The record followed here is article PMC2661055, “The C-terminal sequence of the large hepatitis delta antigen is variable but retains the ability to bind clathrin” (Virology Journal, 2009).

On to “clathrin heavy chain (full-length, endogenous in HuH-7 cells) (from UniProt Q00610 1-1675) (natural protein)”, for which the results for the amount of CHC co-precipitated, ratio to EGFP-LDI (fold of EGFP-LDI) in assay [1] and in assay [2] were 2.6 and 2.2, respectively. For B1, the binding result in assay [3] is on record as “binds”.

B2: clathrin heavy chain (full-length, endogenous in HuH-7 cells) (natural protein, human (endogenous in HuH-7), UniProt Q00610 1-1675, looked up)
chain: MAQILPIRFQEHLQLQNLGINPANIGFSTLTMESDKFICIREKVGEQAQVVIIDMNDPSNPIRRPISADSAIMNPASKVIALKAGKTLQIFNIEMKSKMKAHTMTDDVTFWKWISLNTVALVTDNAVYHWSMEGESQPVKMFDRHSSLAGCQIINYRTDAKQKWLLLTGISAQQNRVVGAMQLYSVDRKVSQPIEGHAASFAQFKMEGNAEESTLFCFAVRGQAGGKLHIIEVGTPPTGNQPFPKKAVDVFFPPEAQNDFPVAMQISEKHDVVFLITKYGYIHLYDLETGTCIYMNRISGETIFVTAPHEATAGIIGVNRKGQVLSVCVEEENIIPYITNVLQNPDLALRMAVRNNLAGAEELFARKFNALFAQGNYSEAAKVAANAPKGILRTPDTIRRFQSVPAQPGQTSPLLQYFGILLDQGQLNKYESLELCRPVLQQGRKQLLEKWLKEDKLECSEELGDLVKSVDPTLALSVYLRANVPNKVIQCFAETGQVQKIVLYAKKVGYTPDWIFLLRNVMRISPDQGQQFAQMLVQDEEPLADITQIVDVFMEYNLIQQCTAFLLDALKNNRPSEGPLQTRLLEMNLMHAPQVADAILGNQMFTHYDRAHIAQLCEKAGLLQRALEHFTDLYDIKRAVVHTHLLNPEWLVNYFGSLSVEDSLECLRAMLSANIRQNLQICVQVASKYHEQLSTQSLIELFESFKSFEGLFYFLGSIVNFSQDPDVHFKYIQAACKTGQIKEVERICRESNCYDPERVKNFLKEAKLTDQLPLIIVCDRFDFVHDLVLYLYRNNLQKYIEIYVQKVNPSRLPVVIGGLLDVDCSEDVIKNLILVVRGQFSTDELVAEVEKRNRLKLLLPWLEARIHEGCEEPATHNALAKIYIDSNNNPERFLRENPYYDSRVVGKYCEKRDPHLACVAYERGQCDLELINVCNENSLFKSLSRYLVRRKDPELWGSVLLESNPYRRPLIDQVVQTALSETQDPEEVSVTVKAFMTADLPNELIELLEKIVLDNSVFSEHRNLQNLLILTAIKADRTRVMEYINRLDNYDAPDIANIAISNELFEEAFAIFRKFDVNTSAVQVLIEHIGNLDRAYEFAERCNEPAVWSQLAKAQLQKGMVKEAIDSYIKADDPSSYMEVVQAANTSGNWEELVKYLQMARKKARESYVETELIFALAKTNRLAELEEFINGPNNAHIQQVGDRCYDEKMYDAAKLLYNNVSNFGRLASTLVHLGEYQAAVDGARKANSTRTWKEVCFACVDGKEFRLAQMCGLHIVVHADELEELINYYQDRGYFEELITMLEAALGLERAHMGMFTELAILYSKFKPQKMREHLELFWSRVNIPKVLRAAEQAHLWAELVFLYDKYEEYDNAIITMMNHPTDAWKEGQFKDIITKVANVELYYRAIQFYLEFKPLLLNDLLMVLSPRLDHTRAVNYFSKVKQLPLVKPYLRSVQNHNNKSVNESLNNLFITEEDYQALRTSIDAYDNFDNISLAQRLEKHELIEFRRIAAYLFKGNNRWKQSVELCKKDSLYKDAMQYASESKDTELAEELLQWFLQEEKRECFGACLFTCYDLLRPDVVLETAWRHNIMDFAMPYFIQVMKEYLTKVDKLDASESLRKEEEQATETQPIVYGQPQLMLTAGPSVAVPPQAPFGYGYTAPPYGQPQPGFGYSM
notes: clathrin heavy chain, endogenous in the human hepatoma cell line HuH-7, detected with anti-clathrin heavy chain; also called CHC; source: endogenous, HuH-7 lysate
As for B2, the “normalized amount of CHC bound, ratio to genotype I” value in assay [4] is 1.6 fold of genotype I; in assay [5], 1.3 fold of genotype I.

On to B3, for which the “amount of CHC fragment pulled down, ratio to GST-LDI_(C(198–210))” value was 1.4 fold of GST-LDI_(C(198–210)) in assay [6] and 0.7 fold of GST-LDI_(C(198–210)) in assay [7].
